B1: UtroNBox probe (dsDNA)
DNA 1: ATCTTCCGGAAC
DNA 2: GTTCCGGAAGAT

Columns and labels:
[1] = tested on: GABP-alpha + GABP-beta1 co-expressed in L6 cells (Homo sapiens); experiment: cell_activity; details: luciferase reporter in L6 cells, n=24, p<0.001
[2] = target: T1, GABP-alpha (Homo sapiens, UniProt Q06546 Q06546:1-454); experiment: EMSA; competed by 1000x unlabelled probe; 20 mM HEPES pH 7.6, 1 mM MgCl2, 40 mM KCl, on ice; details: tags: GST fusion (pGEX); label: 32P 5'-end
T1 sequence: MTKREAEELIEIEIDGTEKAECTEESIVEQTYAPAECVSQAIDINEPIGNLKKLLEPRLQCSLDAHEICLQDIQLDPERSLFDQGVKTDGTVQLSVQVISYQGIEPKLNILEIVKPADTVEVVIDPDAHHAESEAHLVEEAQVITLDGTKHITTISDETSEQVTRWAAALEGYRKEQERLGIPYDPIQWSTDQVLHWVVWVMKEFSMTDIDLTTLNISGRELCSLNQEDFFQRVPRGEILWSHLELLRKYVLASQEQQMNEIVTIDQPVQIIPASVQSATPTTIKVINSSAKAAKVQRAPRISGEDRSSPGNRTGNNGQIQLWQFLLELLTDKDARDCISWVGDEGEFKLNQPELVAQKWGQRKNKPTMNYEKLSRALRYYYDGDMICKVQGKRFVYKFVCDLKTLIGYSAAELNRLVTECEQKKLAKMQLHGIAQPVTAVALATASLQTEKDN
Experimental: (§1) Nuclear extracts were prepared from dishes of L6 myotubes cultured to confluence and total proteins quantified, as previously described [Ausubel F et al; Current Protocols in Molecular Biology; Wiley, N.Y., 1995]. The double stranded UtroNBox probe used was 5′ATCTTCcggaa C 3′ (SEQ ID NO: 7) (N-box underlined, ets-domain italicised and lower case) which was end-labelled with g-P³² ATP using T4 Polynucleotide kinase. Typically, radiolabelled probe (1 ng c. 10-100,000 cpm) was incubated on ice for 20 minutes with 10 μg nuclear extracts or 1 μl GST fusion proteins in a 12.5 μL reaction buffer containing 20 mM HEPES pH 7.6, 1 mM MgCl₂, 0.1 mM EGTA, 40 mM KCl, 10% Glycerol, 1 μg ssDNA. Competition with cold probe was performed with pre-incubation with 1000× excess of unlabelled UtroNBox probe. Complexes were resolved by electrophoresis at 200 V for 2 Hours on 4% Acrylamide gels in 25 mM Tris, 192 mM Glycine, 1 mM EDTA (for nuclear extracts) and 12.5 mM Tris, 96 mM Glycine, 0.5 mM EDTA (for fusion proteins) prior to autoradiographic analysis using a Storm Phosphorimager (Molecular Dynamics, Sunnyvale, Calif.).
(§2) Electrophoretic mobility shift assay was performed with the radiolabelled oligonucleotide UtroNBox probe and purified GABP-α and GABP-β fusion proteins. […]

[3] = target: GABP-beta1 (Homo sapiens, UniProt Q06547 Q06547:2-395); experiment: EMSA; GABP-beta alone; 20 mM HEPES pH 7.6, 1 mM MgCl2, 40 mM KCl, on ice; details: tags: GST fusion (pGEX); label: 32P 5'-end
Experimental: as §1, §2

[4] = target: GABP-alpha/GABP-beta1 heterodimer (Homo sapiens, UniProt Q06546;Q06547 Q06546:1-454,Q06547:2-395); experiment: EMSA; enhanced relative to GABP-alpha alone, multimeric complexes; 20 mM HEPES pH 7.6, 1 mM MgCl2, 40 mM KCl, on ice; details: tags: GST fusions (pGEX), reconstituted in vitro; label: 32P 5'-end
Experimental: as §1, §2

GABP-alpha/GABP-beta1 heterodimer, sequence (Q06547 2-395, one chain of several): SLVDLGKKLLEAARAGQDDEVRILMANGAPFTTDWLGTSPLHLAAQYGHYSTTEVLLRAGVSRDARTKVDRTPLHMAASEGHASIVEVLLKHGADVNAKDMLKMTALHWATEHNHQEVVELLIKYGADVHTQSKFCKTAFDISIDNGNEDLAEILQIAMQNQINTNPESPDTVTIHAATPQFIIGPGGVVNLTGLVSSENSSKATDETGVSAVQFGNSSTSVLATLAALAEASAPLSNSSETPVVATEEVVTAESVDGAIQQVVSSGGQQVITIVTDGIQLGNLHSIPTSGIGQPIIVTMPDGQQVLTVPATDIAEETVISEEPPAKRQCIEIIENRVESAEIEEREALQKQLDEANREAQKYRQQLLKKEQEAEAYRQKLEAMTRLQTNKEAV
GABP-beta1, sequence (Q06547 2-395, one chain of several): as above

Molecule	activity [1]	binding result [2]	binding result [3]	binding result [4]
human utrophin promoter in pPUBF luciferase reporter	238 % of control	–	–	–
B1	–	binds	no binding	binds

Reference: US20020086017, “GA binding protein and neurite derived growth factors for use in the treatment of muscular dystrophy” (published 2002)
